In this assay the target is T1, FcγRIa (human, UniProt P12314 16-292).
T1 construct: extracellular domain; also called FcgRI; 1a
As to the kind of experiment: SPR (Biacore); Ho Ab relative to HoCon Ab = 100. In a few lines: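 Antibodies captured on antigen-peptide chips (CM5 amine-coupled or SA with biotinylated peptide), then each FcγR analyte, diluted in HBS-EP+, was injected at 25° C on Biacore T100. Surfaces regenerated with 10 mM glycine-HCl pH 1.5; binding expressed relative to the reference antibody.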
A general note: SPR reads the build-up and loss of mass on a sensor chip optically.

T1 sequence (P12314 16-292): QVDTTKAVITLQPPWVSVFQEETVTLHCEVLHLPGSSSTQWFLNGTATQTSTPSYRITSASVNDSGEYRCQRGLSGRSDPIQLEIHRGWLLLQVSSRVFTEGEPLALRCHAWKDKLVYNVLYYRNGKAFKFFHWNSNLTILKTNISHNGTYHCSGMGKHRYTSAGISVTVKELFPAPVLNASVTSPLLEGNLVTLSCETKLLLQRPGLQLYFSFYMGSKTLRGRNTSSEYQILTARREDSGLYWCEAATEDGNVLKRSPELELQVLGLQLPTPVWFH

B1: GpH7-B3 variant K326_16H/GpL16-k0 (antibody, human IgG1, kappa)
heavy: not shown
light: DIVMTQSPLSLPVTPGEPASISCQASESLVHSNRNTYLHWYLQKPGQSPQLLIYKVSNRFSGVPDRFSGSGSGTDFTLKISRVEAEDVGVYYCSQNTHVPPTFGQGTKVEIERTVAAPSVFIFPPSDEQLKSGTASVVCLLNNFYPREAKVQWKVDNALQSGNSQESVTEQDSKDSTYSLSSTLTLSKADYEKHKVYACEVTHQGLSSPVTKSFNRGEC
notes: also called Ho Ab K326_16H
Take B1: the Ho/Con_1a was 101 % of control.

B2: GpH7-B3 variant K334_20W/GpL16-k0 (antibody, human IgG1, kappa)
heavy: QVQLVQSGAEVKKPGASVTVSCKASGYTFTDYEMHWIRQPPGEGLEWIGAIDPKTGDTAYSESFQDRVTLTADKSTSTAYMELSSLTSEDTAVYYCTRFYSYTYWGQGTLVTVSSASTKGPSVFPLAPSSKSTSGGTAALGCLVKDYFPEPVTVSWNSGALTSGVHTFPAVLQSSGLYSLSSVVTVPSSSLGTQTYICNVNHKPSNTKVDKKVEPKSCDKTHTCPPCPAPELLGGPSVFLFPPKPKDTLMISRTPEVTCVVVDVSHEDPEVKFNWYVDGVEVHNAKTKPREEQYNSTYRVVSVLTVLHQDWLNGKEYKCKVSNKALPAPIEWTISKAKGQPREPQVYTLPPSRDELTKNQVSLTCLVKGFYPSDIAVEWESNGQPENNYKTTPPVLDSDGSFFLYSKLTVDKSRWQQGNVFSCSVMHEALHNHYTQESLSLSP
light: DIVMTQSPLSLPVTPGEPASISCQASESLVHSNRNTYLHWYLQKPGQSPQLLIYKVSNRFSGVPDRFSGSGSGTDFTLKISRVEAEDVGVYYCSQNTHVPPTFGQGTKVEIERTVAAPSVFIFPPSDEQLKSGTASVVCLLNNFYPREAKVQWKVDNALQSGNSQESVTEQDSKDSTYSLSSTLTLSKADYEKHKVYACEVTHQGLSSPVTKSFNRGEC
notes: also called Ho Ab K334_20W
Consider B2, for which the Ho/Con_1a was 104 % of control.

B3: GpH7-B3 variant L234_10E/GpL16-k0 (antibody, human IgG1, kappa)
heavy: not shown
light: DIVMTQSPLSLPVTPGEPASISCQASESLVHSNRNTYLHWYLQKPGQSPQLLIYKVSNRFSGVPDRFSGSGSGTDFTLKISRVEAEDVGVYYCSQNTHVPPTFGQGTKVEIERTVAAPSVFIFPPSDEQLKSGTASVVCLLNNFYPREAKVQWKVDNALQSGNSQESVTEQDSKDSTYSLSSTLTLSKADYEKHKVYACEVTHQGLSSPVTKSFNRGEC
notes: also called Ho Ab L234_10E
In the case of B3, the Ho/Con_1a was 79.6 % of control.

B4: GpH7-B3 variant K334_06M/GpL16-k0 (antibody, human IgG1, kappa)
heavy: not shown
light: DIVMTQSPLSLPVTPGEPASISCQASESLVHSNRNTYLHWYLQKPGQSPQLLIYKVSNRFSGVPDRFSGSGSGTDFTLKISRVEAEDVGVYYCSQNTHVPPTFGQGTKVEIERTVAAPSVFIFPPSDEQLKSGTASVVCLLNNFYPREAKVQWKVDNALQSGNSQESVTEQDSKDSTYSLSSTLTLSKADYEKHKVYACEVTHQGLSSPVTKSFNRGEC
notes: also called Ho Ab K334_06M
Turning to B4, the Ho/Con_1a is 104 % of control.

B5: GpH7-B3 variant L328_03V/GpL16-k0 (antibody, human IgG1, kappa)
heavy: not shown
light: DIVMTQSPLSLPVTPGEPASISCQASESLVHSNRNTYLHWYLQKPGQSPQLLIYKVSNRFSGVPDRFSGSGSGTDFTLKISRVEAEDVGVYYCSQNTHVPPTFGQGTKVEIERTVAAPSVFIFPPSDEQLKSGTASVVCLLNNFYPREAKVQWKVDNALQSGNSQESVTEQDSKDSTYSLSSTLTLSKADYEKHKVYACEVTHQGLSSPVTKSFNRGEC
notes: also called Ho Ab L328_03V
B5: the Ho/Con_1a is 99.2 % of control.

B6: GpH7-B3 variant L328_14T/GpL16-k0 (antibody, human IgG1, kappa)
heavy: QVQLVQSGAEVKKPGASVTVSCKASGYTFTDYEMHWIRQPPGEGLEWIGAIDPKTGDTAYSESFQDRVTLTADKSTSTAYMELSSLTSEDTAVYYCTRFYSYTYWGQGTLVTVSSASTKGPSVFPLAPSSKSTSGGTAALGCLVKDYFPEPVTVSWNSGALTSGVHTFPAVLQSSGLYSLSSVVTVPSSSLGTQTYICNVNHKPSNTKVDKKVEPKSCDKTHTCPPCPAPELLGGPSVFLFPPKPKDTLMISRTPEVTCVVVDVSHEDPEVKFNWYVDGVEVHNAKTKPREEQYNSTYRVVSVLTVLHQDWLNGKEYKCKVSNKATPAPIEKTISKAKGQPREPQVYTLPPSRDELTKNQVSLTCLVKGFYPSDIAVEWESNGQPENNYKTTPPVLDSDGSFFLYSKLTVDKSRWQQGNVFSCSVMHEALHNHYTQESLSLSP
light: DIVMTQSPLSLPVTPGEPASISCQASESLVHSNRNTYLHWYLQKPGQSPQLLIYKVSNRFSGVPDRFSGSGSGTDFTLKISRVEAEDVGVYYCSQNTHVPPTFGQGTKVEIERTVAAPSVFIFPPSDEQLKSGTASVVCLLNNFYPREAKVQWKVDNALQSGNSQESVTEQDSKDSTYSLSSTLTLSKADYEKHKVYACEVTHQGLSSPVTKSFNRGEC
notes: also called Ho Ab L328_14T
Regarding B6, the Ho/Con_1a is 98.6 % of control.

B7: GpH7-B3 variant L328_19Q/GpL16-k0 (antibody, human IgG1, kappa)
heavy: not shown
light: DIVMTQSPLSLPVTPGEPASISCQASESLVHSNRNTYLHWYLQKPGQSPQLLIYKVSNRFSGVPDRFSGSGSGTDFTLKISRVEAEDVGVYYCSQNTHVPPTFGQGTKVEIERTVAAPSVFIFPPSDEQLKSGTASVVCLLNNFYPREAKVQWKVDNALQSGNSQESVTEQDSKDSTYSLSSTLTLSKADYEKHKVYACEVTHQGLSSPVTKSFNRGEC
notes: also called Ho Ab L328_19Q
On to B7, for which the Ho/Con_1a is 99.3 % of control.

B8: GpH7-B3 variant P238_03V/GpL16-k0 (antibody, human IgG1, kappa)
heavy: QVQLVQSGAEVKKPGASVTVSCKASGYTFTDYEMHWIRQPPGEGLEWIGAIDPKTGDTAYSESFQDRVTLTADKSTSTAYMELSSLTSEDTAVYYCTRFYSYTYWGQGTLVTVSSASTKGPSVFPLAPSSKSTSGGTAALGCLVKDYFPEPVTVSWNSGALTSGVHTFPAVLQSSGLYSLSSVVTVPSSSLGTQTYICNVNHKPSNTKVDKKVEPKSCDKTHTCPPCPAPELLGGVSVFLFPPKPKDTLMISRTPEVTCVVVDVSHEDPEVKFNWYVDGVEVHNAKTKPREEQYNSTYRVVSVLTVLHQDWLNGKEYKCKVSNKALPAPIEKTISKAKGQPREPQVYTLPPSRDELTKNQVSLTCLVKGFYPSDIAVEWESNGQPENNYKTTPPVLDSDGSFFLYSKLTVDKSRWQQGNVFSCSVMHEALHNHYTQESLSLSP
light: DIVMTQSPLSLPVTPGEPASISCQASESLVHSNRNTYLHWYLQKPGQSPQLLIYKVSNRFSGVPDRFSGSGSGTDFTLKISRVEAEDVGVYYCSQNTHVPPTFGQGTKVEIERTVAAPSVFIFPPSDEQLKSGTASVVCLLNNFYPREAKVQWKVDNALQSGNSQESVTEQDSKDSTYSLSSTLTLSKADYEKHKVYACEVTHQGLSSPVTKSFNRGEC
notes: also called Ho Ab P238_03V
For B8, the Ho/Con_1a is 97.9 % of control.

B9: GpH7-B3 variant K334_12R/GpL16-k0 (antibody, human IgG1, kappa)
heavy: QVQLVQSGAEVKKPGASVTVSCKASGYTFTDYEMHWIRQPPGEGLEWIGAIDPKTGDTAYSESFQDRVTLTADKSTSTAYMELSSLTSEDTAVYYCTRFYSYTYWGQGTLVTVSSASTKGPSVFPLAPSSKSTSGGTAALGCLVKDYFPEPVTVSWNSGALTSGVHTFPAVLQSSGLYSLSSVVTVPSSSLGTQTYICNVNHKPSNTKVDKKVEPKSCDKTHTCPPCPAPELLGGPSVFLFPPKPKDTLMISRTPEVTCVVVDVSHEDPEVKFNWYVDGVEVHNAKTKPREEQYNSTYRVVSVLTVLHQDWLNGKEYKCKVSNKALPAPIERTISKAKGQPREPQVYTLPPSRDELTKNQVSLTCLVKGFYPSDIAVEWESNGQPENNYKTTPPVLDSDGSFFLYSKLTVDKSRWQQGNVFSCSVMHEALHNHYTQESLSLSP
light: DIVMTQSPLSLPVTPGEPASISCQASESLVHSNRNTYLHWYLQKPGQSPQLLIYKVSNRFSGVPDRFSGSGSGTDFTLKISRVEAEDVGVYYCSQNTHVPPTFGQGTKVEIERTVAAPSVFIFPPSDEQLKSGTASVVCLLNNFYPREAKVQWKVDNALQSGNSQESVTEQDSKDSTYSLSSTLTLSKADYEKHKVYACEVTHQGLSSPVTKSFNRGEC
notes: also called Ho Ab K334_12R
Turning to B9, the Ho/Con_1a was 102 % of control.

B10: GpH7-B3 variant L234_04F/GpL16-k0 (antibody, human IgG1, kappa)
heavy: not shown
light: DIVMTQSPLSLPVTPGEPASISCQASESLVHSNRNTYLHWYLQKPGQSPQLLIYKVSNRFSGVPDRFSGSGSGTDFTLKISRVEAEDVGVYYCSQNTHVPPTFGQGTKVEIERTVAAPSVFIFPPSDEQLKSGTASVVCLLNNFYPREAKVQWKVDNALQSGNSQESVTEQDSKDSTYSLSSTLTLSKADYEKHKVYACEVTHQGLSSPVTKSFNRGEC
notes: also called Ho Ab L234_04F
As to B10, the Ho/Con_1a is 93.5 % of control.

B11: GpH7-B3 variant L234_15Y/GpL16-k0 (antibody, human IgG1, kappa)
heavy: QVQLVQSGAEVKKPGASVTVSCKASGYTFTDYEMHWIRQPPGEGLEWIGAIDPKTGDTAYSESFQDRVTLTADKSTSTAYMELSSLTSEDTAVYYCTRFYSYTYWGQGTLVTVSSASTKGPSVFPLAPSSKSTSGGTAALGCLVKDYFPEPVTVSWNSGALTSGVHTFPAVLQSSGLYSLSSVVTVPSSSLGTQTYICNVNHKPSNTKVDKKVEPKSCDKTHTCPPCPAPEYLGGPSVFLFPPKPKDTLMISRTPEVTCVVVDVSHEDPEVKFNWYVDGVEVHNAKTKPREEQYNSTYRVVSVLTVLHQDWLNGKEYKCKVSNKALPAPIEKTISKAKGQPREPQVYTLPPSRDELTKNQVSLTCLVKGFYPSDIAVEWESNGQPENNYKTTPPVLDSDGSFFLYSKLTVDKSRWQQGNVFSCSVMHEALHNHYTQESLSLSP
light: DIVMTQSPLSLPVTPGEPASISCQASESLVHSNRNTYLHWYLQKPGQSPQLLIYKVSNRFSGVPDRFSGSGSGTDFTLKISRVEAEDVGVYYCSQNTHVPPTFGQGTKVEIERTVAAPSVFIFPPSDEQLKSGTASVVCLLNNFYPREAKVQWKVDNALQSGNSQESVTEQDSKDSTYSLSSTLTLSKADYEKHKVYACEVTHQGLSSPVTKSFNRGEC
notes: also called Ho Ab L234_15Y
As to B11, the Ho/Con_1a was 98.9 % of control.

B12: GpH7-B3 variant P238_04F/GpL16-k0 (antibody, human IgG1, kappa)
heavy: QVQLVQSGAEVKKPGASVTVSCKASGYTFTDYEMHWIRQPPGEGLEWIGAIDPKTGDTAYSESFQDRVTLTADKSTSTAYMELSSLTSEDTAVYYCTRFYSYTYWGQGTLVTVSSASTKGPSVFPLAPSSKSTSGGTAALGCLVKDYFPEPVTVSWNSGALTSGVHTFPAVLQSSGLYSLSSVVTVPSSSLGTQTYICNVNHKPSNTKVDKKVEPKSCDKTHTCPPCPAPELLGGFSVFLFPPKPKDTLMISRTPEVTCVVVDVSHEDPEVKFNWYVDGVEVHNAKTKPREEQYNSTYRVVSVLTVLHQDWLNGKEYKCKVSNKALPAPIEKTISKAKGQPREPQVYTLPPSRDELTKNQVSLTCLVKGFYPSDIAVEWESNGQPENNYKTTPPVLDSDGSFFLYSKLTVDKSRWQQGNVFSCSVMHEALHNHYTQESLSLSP
light: DIVMTQSPLSLPVTPGEPASISCQASESLVHSNRNTYLHWYLQKPGQSPQLLIYKVSNRFSGVPDRFSGSGSGTDFTLKISRVEAEDVGVYYCSQNTHVPPTFGQGTKVEIERTVAAPSVFIFPPSDEQLKSGTASVVCLLNNFYPREAKVQWKVDNALQSGNSQESVTEQDSKDSTYSLSSTLTLSKADYEKHKVYACEVTHQGLSSPVTKSFNRGEC
notes: also called Ho Ab P238_04F
With B12, the Ho/Con_1a was 98.7 % of control.

B13: GpH7-B3 variant L328_20W/GpL16-k0 (antibody, human IgG1, kappa)
heavy: not shown
light: DIVMTQSPLSLPVTPGEPASISCQASESLVHSNRNTYLHWYLQKPGQSPQLLIYKVSNRFSGVPDRFSGSGSGTDFTLKISRVEAEDVGVYYCSQNTHVPPTFGQGTKVEIERTVAAPSVFIFPPSDEQLKSGTASVVCLLNNFYPREAKVQWKVDNALQSGNSQESVTEQDSKDSTYSLSSTLTLSKADYEKHKVYACEVTHQGLSSPVTKSFNRGEC
notes: also called Ho Ab L328_20W
On to B13, for which the Ho/Con_1a was 99.9 % of control.

B14: GpH7-B3 variant L234_07I/GpL16-k0 (antibody, human IgG1, kappa)
heavy: not shown
light: DIVMTQSPLSLPVTPGEPASISCQASESLVHSNRNTYLHWYLQKPGQSPQLLIYKVSNRFSGVPDRFSGSGSGTDFTLKISRVEAEDVGVYYCSQNTHVPPTFGQGTKVEIERTVAAPSVFIFPPSDEQLKSGTASVVCLLNNFYPREAKVQWKVDNALQSGNSQESVTEQDSKDSTYSLSSTLTLSKADYEKHKVYACEVTHQGLSSPVTKSFNRGEC
notes: also called Ho Ab L234_07I
As for B14, the Ho/Con_1a is 99.5 % of control.

B15: GpH7-B3 variant K334_10E/GpL16-k0 (antibody, human IgG1, kappa)
heavy: not shown
light: DIVMTQSPLSLPVTPGEPASISCQASESLVHSNRNTYLHWYLQKPGQSPQLLIYKVSNRFSGVPDRFSGSGSGTDFTLKISRVEAEDVGVYYCSQNTHVPPTFGQGTKVEIERTVAAPSVFIFPPSDEQLKSGTASVVCLLNNFYPREAKVQWKVDNALQSGNSQESVTEQDSKDSTYSLSSTLTLSKADYEKHKVYACEVTHQGLSSPVTKSFNRGEC
notes: also called Ho Ab K334_10E
With B15, the Ho/Con_1a was 107 % of control.

B16: GpH7-B3 variant L328_10E/GpL16-k0 (antibody, human IgG1, kappa)
heavy: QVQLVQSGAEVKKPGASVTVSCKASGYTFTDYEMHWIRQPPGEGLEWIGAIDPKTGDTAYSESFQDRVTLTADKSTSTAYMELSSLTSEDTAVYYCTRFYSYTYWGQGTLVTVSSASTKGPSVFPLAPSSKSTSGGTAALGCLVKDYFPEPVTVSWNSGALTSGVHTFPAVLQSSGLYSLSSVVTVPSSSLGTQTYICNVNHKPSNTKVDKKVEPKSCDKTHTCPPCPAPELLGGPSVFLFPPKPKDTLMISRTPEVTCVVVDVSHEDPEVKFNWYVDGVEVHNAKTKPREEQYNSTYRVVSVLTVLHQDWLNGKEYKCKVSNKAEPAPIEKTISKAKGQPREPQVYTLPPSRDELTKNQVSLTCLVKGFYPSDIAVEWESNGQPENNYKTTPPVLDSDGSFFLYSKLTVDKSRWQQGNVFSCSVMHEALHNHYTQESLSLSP
light: DIVMTQSPLSLPVTPGEPASISCQASESLVHSNRNTYLHWYLQKPGQSPQLLIYKVSNRFSGVPDRFSGSGSGTDFTLKISRVEAEDVGVYYCSQNTHVPPTFGQGTKVEIERTVAAPSVFIFPPSDEQLKSGTASVVCLLNNFYPREAKVQWKVDNALQSGNSQESVTEQDSKDSTYSLSSTLTLSKADYEKHKVYACEVTHQGLSSPVTKSFNRGEC
notes: also called Ho Ab L328_10E
Regarding B16, the Ho/Con_1a is 101 % of control.

B17: GpH7-B3 variant P238_06M/GpL16-k0 (antibody, human IgG1, kappa)
heavy: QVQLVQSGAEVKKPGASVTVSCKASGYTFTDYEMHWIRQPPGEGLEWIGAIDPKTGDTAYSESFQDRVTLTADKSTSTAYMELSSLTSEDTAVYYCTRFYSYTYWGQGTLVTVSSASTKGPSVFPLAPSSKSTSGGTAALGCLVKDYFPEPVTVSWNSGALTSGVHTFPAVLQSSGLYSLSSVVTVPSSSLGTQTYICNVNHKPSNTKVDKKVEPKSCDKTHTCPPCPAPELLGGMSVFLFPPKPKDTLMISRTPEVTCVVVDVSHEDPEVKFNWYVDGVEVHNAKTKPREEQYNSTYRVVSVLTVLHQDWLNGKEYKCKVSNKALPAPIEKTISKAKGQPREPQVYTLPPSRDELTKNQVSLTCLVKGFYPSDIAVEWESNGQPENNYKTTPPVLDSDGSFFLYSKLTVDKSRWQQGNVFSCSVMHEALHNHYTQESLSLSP
light: DIVMTQSPLSLPVTPGEPASISCQASESLVHSNRNTYLHWYLQKPGQSPQLLIYKVSNRFSGVPDRFSGSGSGTDFTLKISRVEAEDVGVYYCSQNTHVPPTFGQGTKVEIERTVAAPSVFIFPPSDEQLKSGTASVVCLLNNFYPREAKVQWKVDNALQSGNSQESVTEQDSKDSTYSLSSTLTLSKADYEKHKVYACEVTHQGLSSPVTKSFNRGEC
notes: also called Ho Ab P238_06M
As to B17, the Ho/Con_1a was 100 % of control.

B18: GpH7-B3 variant P238_08L/GpL16-k0 (antibody, human IgG1, kappa)
heavy: not shown
light: DIVMTQSPLSLPVTPGEPASISCQASESLVHSNRNTYLHWYLQKPGQSPQLLIYKVSNRFSGVPDRFSGSGSGTDFTLKISRVEAEDVGVYYCSQNTHVPPTFGQGTKVEIERTVAAPSVFIFPPSDEQLKSGTASVVCLLNNFYPREAKVQWKVDNALQSGNSQESVTEQDSKDSTYSLSSTLTLSKADYEKHKVYACEVTHQGLSSPVTKSFNRGEC
notes: also called Ho Ab P238_08L
Regarding B18, the Ho/Con_1a was 100 % of control.

B19: GpH7-B3 variant L234_03V/GpL16-k0 (antibody, human IgG1, kappa)
heavy: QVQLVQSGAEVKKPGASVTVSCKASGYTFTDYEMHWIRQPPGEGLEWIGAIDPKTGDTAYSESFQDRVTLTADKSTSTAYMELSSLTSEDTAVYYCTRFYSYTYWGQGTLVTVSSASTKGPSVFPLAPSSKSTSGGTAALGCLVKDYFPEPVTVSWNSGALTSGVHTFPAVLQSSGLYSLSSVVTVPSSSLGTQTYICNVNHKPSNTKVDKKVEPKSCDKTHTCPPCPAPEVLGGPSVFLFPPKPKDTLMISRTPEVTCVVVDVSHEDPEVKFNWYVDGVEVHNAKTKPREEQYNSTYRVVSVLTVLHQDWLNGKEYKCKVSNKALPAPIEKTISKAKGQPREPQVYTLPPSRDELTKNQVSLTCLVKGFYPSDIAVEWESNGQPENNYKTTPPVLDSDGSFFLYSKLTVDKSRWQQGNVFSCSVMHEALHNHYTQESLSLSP
light: DIVMTQSPLSLPVTPGEPASISCQASESLVHSNRNTYLHWYLQKPGQSPQLLIYKVSNRFSGVPDRFSGSGSGTDFTLKISRVEAEDVGVYYCSQNTHVPPTFGQGTKVEIERTVAAPSVFIFPPSDEQLKSGTASVVCLLNNFYPREAKVQWKVDNALQSGNSQESVTEQDSKDSTYSLSSTLTLSKADYEKHKVYACEVTHQGLSSPVTKSFNRGEC
notes: also called Ho Ab L234_03V
Take B19: the Ho/Con_1a is 98.2 % of control.

B20: GpH7-B3 variant L234_06M/GpL16-k0 (antibody, human IgG1, kappa)
heavy: not shown
light: DIVMTQSPLSLPVTPGEPASISCQASESLVHSNRNTYLHWYLQKPGQSPQLLIYKVSNRFSGVPDRFSGSGSGTDFTLKISRVEAEDVGVYYCSQNTHVPPTFGQGTKVEIERTVAAPSVFIFPPSDEQLKSGTASVVCLLNNFYPREAKVQWKVDNALQSGNSQESVTEQDSKDSTYSLSSTLTLSKADYEKHKVYACEVTHQGLSSPVTKSFNRGEC
notes: also called Ho Ab L234_06M
Regarding B20, the Ho/Con_1a was 96.5 % of control.

B21: GpH7-B3 variant K326_18N/GpL16-k0 (antibody, human IgG1, kappa)
heavy: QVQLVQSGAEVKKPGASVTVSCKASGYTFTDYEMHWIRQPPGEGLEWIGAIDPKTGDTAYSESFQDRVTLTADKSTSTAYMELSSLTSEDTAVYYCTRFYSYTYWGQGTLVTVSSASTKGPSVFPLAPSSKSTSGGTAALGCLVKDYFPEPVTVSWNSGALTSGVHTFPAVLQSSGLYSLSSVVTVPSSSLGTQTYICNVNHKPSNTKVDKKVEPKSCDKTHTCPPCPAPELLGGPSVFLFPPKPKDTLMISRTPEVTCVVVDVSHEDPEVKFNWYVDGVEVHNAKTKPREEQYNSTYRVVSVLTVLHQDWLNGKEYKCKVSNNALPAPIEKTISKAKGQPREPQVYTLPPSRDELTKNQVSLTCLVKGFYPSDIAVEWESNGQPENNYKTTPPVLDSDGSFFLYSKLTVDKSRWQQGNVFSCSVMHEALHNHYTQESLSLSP
light: DIVMTQSPLSLPVTPGEPASISCQASESLVHSNRNTYLHWYLQKPGQSPQLLIYKVSNRFSGVPDRFSGSGSGTDFTLKISRVEAEDVGVYYCSQNTHVPPTFGQGTKVEIERTVAAPSVFIFPPSDEQLKSGTASVVCLLNNFYPREAKVQWKVDNALQSGNSQESVTEQDSKDSTYSLSSTLTLSKADYEKHKVYACEVTHQGLSSPVTKSFNRGEC
notes: also called Ho Ab K326_18N
In the case of B21, the Ho/Con_1a was 102 % of control.
